The record followed here is US6855515B1, “Autoantigenic fragments, methods and assays” (Merck & Co., Inc., priority 1998, dated 2005).

This experiment addresses T1, granzyme B (Homo sapiens, UniProt P10144).
T1 construct: Some of these preparations were used for the further purification of granzyme B (Tschopp, 1994); endogenous in cells; host or cells: YT cells (human NK cell line), cytoplasmic granules
In words: Susceptibility of autoantigens to cleavage by purified granzyme B (HeLa lysate immunoblot or immunoprecipitates). It is filed as biochemical. As to conditions: in vitro. Here is the method: To determine whether susceptibility to direct cleavage by granzyme B was an isolated feature of PARP, NuMA and DNA-PKcs shown above, or whether it was a more general feature of autoantigens, a variety of well-defined autoantigens selected from across the spectrum of systemic autoimmune diseases were tested for susceptibility to cleavage by purified granzyume B. The efficiency of cleavage of the substrates by purified granzyme B was also noted (Table 3). Initially, a series of autoantibodies of well-defined specificity were used to immunoblot lysates of HeLa cells that had been incubated in vitro with or without granzyme B. Lysates were pre-treated with iodoacetamide (IAA) to prevent interference by endogenous caspase activity.
To perform these studies, HeLa cells were radiolabeled with [^35S] methionine/cysteine, and proteins were immunoprecipitated using human autoantibodies. Protein A-agarose beads containing washed precipitated proteins were resuspended in buffer supporting the activity of granzyme B, and incubated in the absence or presence of added purified granzyme B. Reaction products were visualized using SDS-PAGE and fluorography. To confirm the validity of this approach, several different autoantigens known to be cleaved by granzyme B, as well as several autoantigens and non-autoantigens that are not cleaved by granzyme B, were tested. Using autoantibodies that both immunoblot and immunprecipitate, the cleavage profiles obtained using granzyme B to cleave molecules in lysates (followed by detection with immunoblotting), and after immunoprecipitation (from [^35S]methionine-labeled HeLa lysate) were compared. Identical results were obtained using these 2 methods for cleaved autoantigens (topoisomerase-1, Mi-2, RNA polymerase II large subunit, Ku-70, PARP, and NOR-90), uncleaved autoantigens (Ku-80, Ro 60k), and control substrates (β-tubulin, vinculin). […] Of note, all these additional autoantigens (with the exception of RNA polymerase I) are targeted in autoimmune myositis. However, two other tRNA synthetases (threonyl tRNA synthetase and glycyl tRNA synthetase) that are also autoantigens in autoimmune myositis, were not cleaved using this approach.
In general terms: In western blotting, separated proteins are transferred to a membrane and probed.

T1 sequence (P10144 21-247): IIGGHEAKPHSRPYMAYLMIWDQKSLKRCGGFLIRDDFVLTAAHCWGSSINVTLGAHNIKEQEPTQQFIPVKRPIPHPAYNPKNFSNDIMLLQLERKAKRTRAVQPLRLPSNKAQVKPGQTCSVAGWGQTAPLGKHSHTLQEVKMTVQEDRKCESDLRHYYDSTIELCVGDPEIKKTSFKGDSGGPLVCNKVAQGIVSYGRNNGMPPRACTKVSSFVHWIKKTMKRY

B1: glycyl tRNA synthetase: autoantigen in autoimmune myositis (protein)
chain: MDGAGAEEVLAPLRLAVRQQGDLVRKLKEDKAPQVDVDKAVAELKARKRVLEAKELALQPKDDIVDRAKMEDTLKRRFFYDQAFAIYGGVSGLYDFGPVGCALKNNIIQTWRQHFIQEEQILEIDCTMLTPEPVLKTSGHVDKFADFMVKDVKNGECFRADHLLKAHLQKLMSDKKCSVEKKSEMESVLAQLDNYGQQELADLFVNYNVKSPITGNDLSPPVSFNLMFKTFIGPGGNMPGYLRPETAQGIFLNFKRLLEFNQGKLPFAAAQIGNSFRNEISPRSGLIRVREFTMAEIEHFVDPSEKDHPKFQNVADLHLYLYSAKAQVSGQSARKMRLGDAVEQGVINNTVLGYFIGRIYLYLTKVGISPDKLRFRQHMENEMAHYACDCWDAESKTSYGWIEIVGCADRSCYDLSCHARATKVPLVAEKPLKEPKTVNVVQFEPSKGAIGKAYKKDAKLVMEYLAICDECYITEMEMLLNEKGEFTIETEGKTFQLTKDMINVKRFQKTLYVEEVVPNVIEPSFGLGRIMYTVFEHTFHVREGDEQRTFFSFPAVVAPFKCSVLPLSQNQEFMPFVKELSEALTRHGVSHKVDDSSGSIGRRYARTDEIGVAFGVTIDFDTVNKTPHTATLRDRDSMRQIRAEISELPSIVQDLANGNITWADVEARYPLFEGQETGKKETIEE
In the case of B1, the “susceptibility to cleavage by granzyme B” value is listed as “not cleaved”.

B2: threonyl tRNA synthetase: autoantigen in autoimmune myositis (protein)
chain: MFEEKASSPSGKMGGEEKPIGAGEEKQKEGGKKKNKEGSGDGGRAELNPWPEYIYTRLEMYNILKAEHDSILAEKAEKDSKPIKVTLPDGKQVDAESWKTTPYQIACGISQGLADNTVIAKVNNVVWDLDRPLEEDCTLELLKFEDEEAQAVYWHSSAHIMGEAMERVYGGCLCYGPPIENGFYYDMYLEEGGVSSNDFSSLEALCKKIIKEKQAFERLEVKKETLLAMFKYNKFKCRILNEKVNTPTTTVYRCGPLIDLCRGPHVRHTGKIKALKIHKNSSTYWEGKADMETLQRIYGISFPDPKMLKEWEKFQEEAKNRDHRKIGRDQELYFFHELSPGSCFFLPKGAYIYNALIEFIRSEYRKRGFQEVVTPNIFNSRLWMTSGHWQHYSENMFSFEVEKELFALKPMNCPGHCLMFDHRPRSWRELPLRLADFGVLHRNELSGALTGLTRVRRFQQDDAHIFCAMEQIEDEIKGCLDFLRTVYSVFGFSFKLNLSTRPEKFLGDIEVWDQAEKQLENSLNEFGEKWELNSGDGAFYGPKIDIQIKDAIGRYHQCATIQLDFQLPIRFNLTYVSHDGDDKKRPVIVHRAILGSVERMIAILTENYGGKWPFWLSPRQVMVVPVGPTCDEYAQKVRQQFHDAKFMADIDLDPGCTLNKKIRNAQLAQYNFILVVGEKEKISGTVNIRTRDNKVHGERTISETIERLQQLKEFRSKQAEEEF
With B2, the “susceptibility to cleavage by granzyme B” value was “not cleaved”.
